For one assay, the target named is C-terminal of CD73. Briefly: plate binding assay, axis Binding activity (OD450) against Ab (µg/ml); panel Binding to C-terminal of CD73.
The target in assay [1] is T1, recombinant human CD73 protein (human, UniProt P21589 27-547).
T1 construct: Bought (Novoprotein); also called recombinant CD73 protein; soluble CD73
T1 sequence: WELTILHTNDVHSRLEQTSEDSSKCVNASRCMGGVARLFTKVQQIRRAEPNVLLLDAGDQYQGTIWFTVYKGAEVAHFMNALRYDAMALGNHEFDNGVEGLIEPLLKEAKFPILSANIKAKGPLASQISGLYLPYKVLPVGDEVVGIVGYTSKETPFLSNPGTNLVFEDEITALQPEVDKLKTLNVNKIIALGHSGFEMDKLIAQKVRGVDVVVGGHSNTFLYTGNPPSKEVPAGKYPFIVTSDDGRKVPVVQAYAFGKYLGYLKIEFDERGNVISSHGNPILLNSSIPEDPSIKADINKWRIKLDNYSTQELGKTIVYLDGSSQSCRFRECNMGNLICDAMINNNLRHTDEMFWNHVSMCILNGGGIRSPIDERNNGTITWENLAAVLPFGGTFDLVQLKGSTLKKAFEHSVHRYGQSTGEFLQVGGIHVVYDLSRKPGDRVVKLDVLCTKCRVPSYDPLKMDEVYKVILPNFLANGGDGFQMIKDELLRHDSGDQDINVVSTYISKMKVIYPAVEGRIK
The assay can be described thus: ELISA, recombinant human CD73 at 2 ug/ml.

In assay [2] the target is T1, recombinant human CD73 protein. Briefly: cell-based or functional assay.
The target is the same in assay [3]. The assay can be described thus: cell-based or functional assay. The source holds these as a separate data set.
Assay [4] deals with cyno CD73 (cyno). Briefly: cell-based or functional assay.
The target in assay [5] is T2, human CD73 on the cell surface (human, UniProt P21589 27-549).
T2 sequence: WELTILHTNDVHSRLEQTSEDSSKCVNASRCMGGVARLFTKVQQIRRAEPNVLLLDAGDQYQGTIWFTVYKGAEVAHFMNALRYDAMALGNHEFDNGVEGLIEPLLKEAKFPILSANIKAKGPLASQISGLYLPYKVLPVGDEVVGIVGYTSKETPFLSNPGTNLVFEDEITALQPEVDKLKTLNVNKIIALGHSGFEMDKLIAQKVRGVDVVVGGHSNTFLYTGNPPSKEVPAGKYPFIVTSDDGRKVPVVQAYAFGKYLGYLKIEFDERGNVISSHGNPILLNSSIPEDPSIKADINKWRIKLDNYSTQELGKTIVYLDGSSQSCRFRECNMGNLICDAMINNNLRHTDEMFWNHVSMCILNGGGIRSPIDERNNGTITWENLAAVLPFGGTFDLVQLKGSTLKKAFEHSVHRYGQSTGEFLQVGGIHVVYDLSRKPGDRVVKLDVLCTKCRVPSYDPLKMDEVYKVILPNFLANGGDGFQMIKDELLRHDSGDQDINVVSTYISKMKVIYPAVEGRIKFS
The assay can be described thus: cell-based or functional assay.

Assay [6] deals with T2, human CD73 on the cell surface. The assay can be described thus: flow cytometry on SK-OV-3 cells. The method, then: Binding was measured using an FACSCanto (Becton-Dickinson), and the results are presented in FIG. 8 (see also the table below).
Assay [7] has as its target T1, recombinant human CD73 protein. The assay can be described thus: SPR, Biacore T200, antibody captured by anti-human Fc IgG, antigen as analyte, 1:1 model, 25 C. How it is done: For the binding assay, the Biacore T200 system was used through human antibody capture approach. The anti-human Fc lgG were immobilized on CMS sensor chip according to the manufactory's instruction. The test antibody was injected and captured by the immobilized anti-human Fc lgG. And then serial concentrations of antigen was individually injected, and the binding profile was recorded for each concentration antigen analyte, respectively. The assay system was regenerated by injection of 10 mM Glycine-HCl pH 1.5 for 30 seconds. The running buffer was HBS-EP+(10 mM HEPES, pH 7.4, 150 mM NaCl, 3 mM EDTA and 0.05% P20). The assay temperature was 25° C., and the association and dissociation time were 180 and 600 seconds, respectively.

Assay [8] concerns the target T2, human CD73 on the cell surface. Briefly: flow cytometry on SK-OV-3 cells. From the text:
In the right panel, human ovarian carcinoma cell line (SK-OV-3) was stained with different concentrations of Hu101-28 and analyzed for surface binding by flow cytometry.
This is another data set of the same source.

Assay [9] concerns the target T1, recombinant human CD73 protein. Briefly: cell-based or functional assay. The source holds these as a separate data set.
Assay [10] has as its target T2, human CD73 on the cell surface. Briefly: cell-based or functional assay. The source holds these as a separate data set.
The target of assay [11] is T1, recombinant human CD73 protein. Briefly: plate binding assay read as OD 450 against Log (nM) of antibody; text: in vitro biochemical assay.
The target in assay [12] is cyno CD73 (cyno). The assay is described as above.
Assay [13] concerns the target T3, D399A.
T3 construct: also called CD73 variant D399A
T3 CD73 subunit: T2 sequence with D373A
The assay can be described thus: high-throughput flow cytometry on cells expressing the CD73 variant, in duplicate; mean (range). How it is done: (§1) To identify the epitope of Hu101-28, a library of clones of single amino acid-mutated CD73 variants was made. Binding of Hu101-28 Fab to each variant in the library was determined, in duplicate, by high-throughput flow cytometry. For each CD73 variant, the mean binding value was plotted as a function of CD73 expression (represented by control reactivity) on chart and critical residues were identified from the chart. Critical residues for CD73 Fab binding (outlined in red) were identified as those whose mutations were negative for test Fab binding, but positive for the control MAbs. The mean binding reactivities (and ranges) are listed for the critical residues identified in the screens, and are shown in FIG. 23.

The target of assay [14] is T4, R401A.
T4 construct: also called CD73 variant R401A
T4 CD73 subunit: T2 sequence with R375A
The description is as above. The method, then:
as §1

Assay [15] addresses T5, E400A.
T5 construct: also called CD73 variant E400A
T5 CD73 subunit: T2 sequence with E374A
Described as above. How it is done: as §1

Assay [16] deals with T6, Y345A.
T6 construct: also called CD73 variant Y345A
T6 CD73 subunit: T2 sequence with Y319A
The assay is described as above. The method, then: as §1

Assay [17] addresses T3, D399A. Briefly: high-throughput flow cytometry on cells expressing the CD73 variant. The method, then: as §1
(In flow cytometry, cells or beads pass a laser one at a time.)

For assay [18], the target named is T4, R401A. The assay is described as above. How it is done:
as §1

Assay [19] deals with T5, E400A. The description is as above. How it is done:
as §1

The target of assay [20] is T6, Y345A. Described as above. The method, then:
as §1

Numbering of substitutions follows the chain as printed. Read-outs that look alike come from different tables or passages of the source.

As a reminder, the EC50 (read off the curve) is the midpoint of the concentration-response curve. A higher EC50 (read off the curve) goes with a less potent agent. The EC50 is the concentration needed to bring the measured effect to its halfway point. Usually Kd stands for the free concentration of one partner at which half of the binding sites on the other are occupied at equilibrium, for simple one-to-one binding. A word on the koff: it is the rate constant with which the complex falls apart. Usually kon stands for a measure of how fast the partners come together.

C-terminal of CD73, sequence (P21589 whole entry): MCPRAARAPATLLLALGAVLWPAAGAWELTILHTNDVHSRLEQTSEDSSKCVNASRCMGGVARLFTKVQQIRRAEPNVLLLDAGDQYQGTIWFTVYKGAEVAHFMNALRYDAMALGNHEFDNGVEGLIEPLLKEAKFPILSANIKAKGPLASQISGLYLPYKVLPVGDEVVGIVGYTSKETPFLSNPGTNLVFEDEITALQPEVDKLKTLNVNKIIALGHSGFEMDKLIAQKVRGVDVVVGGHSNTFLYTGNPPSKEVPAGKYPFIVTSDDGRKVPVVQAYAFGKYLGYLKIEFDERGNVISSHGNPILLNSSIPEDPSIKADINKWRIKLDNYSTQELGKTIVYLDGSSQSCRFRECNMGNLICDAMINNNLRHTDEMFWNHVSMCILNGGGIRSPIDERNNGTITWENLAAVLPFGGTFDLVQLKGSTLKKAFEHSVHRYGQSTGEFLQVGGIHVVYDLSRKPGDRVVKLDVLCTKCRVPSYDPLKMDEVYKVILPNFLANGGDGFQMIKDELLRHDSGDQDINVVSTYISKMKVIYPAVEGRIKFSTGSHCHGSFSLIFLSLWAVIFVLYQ

B1: Hu101-28 (antibody, V domains shown)
VH: EVQLQESGPGLVKPSETLSLTCAVSGYSITSGYYWNWIRQPPGKKLEWMGYINYGGSNGYNPSLKSRITISRDTSKNQFSLKLSSVTAADTAVYYCARDYDAYYEALDDWGQGTTVTVSS
VL: EIVLSQSPATLSLSPGERATLSCRASSRVNYMHWYQQKPGQSPRPWISATSNLASGVPARFSGSGSGTSYTLTISSLEPEDFAVYYCQQWSSNPPTFGGGTKVEIK
notes: also called humanized anti-CD73 antibody Hu101-28
For the molecule B1, the “EC50 (read off the curve)” value with C-terminal of CD73 was roughly 0.02 µg/mL. Moreover, the EC50 was 0.0887 nM in assay [1]; 1.35 nM in [6]; 0.67 nM in assay [8]; 0.09 nM in assay [11]; 0.44 nM in the assay with cyno CD73 [12]. In addition, in assay [2], the “IC50 (nM), inhibition of recombinant CD73 enzymatic activity” value was 9.35 nM. The “IC50, inhibition of CD73 enzyme activity (% of residual enzyme activity)” value in [3] was 1.78 nM; with cyno CD73 [4] it was 2.22 nM. For the same molecule, the “IC50 (nM), inhibition of CD73 enzymatic activity on SK-OV-3 cells” value in assay [5] turned out to be 2.52 nM. Besides, the Kd in assay [7] amounted to 0.59 nM. Further, in assay [7], the koff turned out to be 3.47e-05 s⁻¹. Also, the kon in assay [7] was found to be 58900 M⁻¹ s⁻¹. For the same molecule, the “IC50, inhibition of recombinant human CD73 activity (CellTiter-Glo)” value in assay [9] came out at 2.84 nM. Further, the “IC50, inhibition of CD73 activity on MDA-MB-231 cells (CellTiter-Glo)” value in [10] is 8.21 nM. Moreover, the “IC50, inhibition of CD73 activity on SK-OV-3 cells (CellTiter-Glo)” value in [10] turned out to be 2.52 nM.

B2: Hu101-28 Fab (Fab, V domains shown)
VH: B1 VH
VL: B1 VL
notes: also called test Fab; CD73 Fab
For B2, the “Binding Reactivity (% WT)” value with D399A [13] was determined as 1.8 % WT; with R401A [14], 1.1 % WT; with E400A [15] it was 3.6 % WT; with Y345A [16] it was 2.7 % WT. Also, the binding result in the assay with D399A [17], in the assay with R401A [18], in the assay with E400A [19] and with Y345A [20] was “no binding” each time.

Values taken from patent publication US20200332005A1 (I MAB, published 2020).
